According to article PMC2796168:

Columns and labels:
[1] = biological target: non-glycosylated Evasin-1 (Rhipicephalus sanguineus) (UniProt P0C8E7); assay: crystal structure; complex of non-glycosylated Evasin-1 and ΔAla1-CCL3 (A10T), formed overnight at 4°C at a molar ratio of 1:2.5, captured on Ni-NTA; crystals in 24% PEG 3350, 0.2 M ammonium sulphate, 0.1 M HEPES pH 8.1; 1.9 Å
CCL18 (Homo sapiens) = CCL18 (Homo sapiens) (UniProt P55774); conditions: cited from earlier work
CCL4 (Homo sapiens) = CCL4 (Homo sapiens) (UniProt P13236); conditions: cited from earlier work
Chain of CCL4 (Homo sapiens) (P13236 24-92): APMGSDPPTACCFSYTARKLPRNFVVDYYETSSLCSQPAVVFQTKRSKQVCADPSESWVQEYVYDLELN

CCL3 (Homo sapiens) = CCL3 (Homo sapiens) (UniProt P10147); conditions: cited from earlier work
Chain of CCL3 (Homo sapiens) (P10147 24-92): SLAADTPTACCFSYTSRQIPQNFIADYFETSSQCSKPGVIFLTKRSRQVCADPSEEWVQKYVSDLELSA

Chain of Evasin-1 (P0C8E7 21-114): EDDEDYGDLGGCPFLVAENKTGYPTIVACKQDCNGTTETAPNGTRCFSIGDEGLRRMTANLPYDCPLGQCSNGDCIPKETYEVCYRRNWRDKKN
Chain of CCL18 (Homo sapiens) (P55774 24-89): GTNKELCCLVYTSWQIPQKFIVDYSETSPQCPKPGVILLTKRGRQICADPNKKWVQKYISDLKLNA
Chain of non-glycosylated Evasin-1 (Rhipicephalus sanguineus) (P0C8E7 21-114): as the sequence (P0C8E7 21-114) above

Row | Substance | stoichiometry N [1] | Kd (CCL18 (Homo sapiens)) | Kd (CCL4 (Homo sapiens)) | Kd (CCL3 (Homo sapiens))
1 | ΔAla1-CCL3 (A10T) (ligand) | 1 |  |  | 
2 | Evasin-1 (from UniProt P0C8E7) |  | 3.2 nM | 0.81 nM | 0.16 nM
